The target in test [1] is T1, CHO-K1-T1001细胞表达的人TIGIT (human) (UniProt Q495A1).
T1 sequence (looked up): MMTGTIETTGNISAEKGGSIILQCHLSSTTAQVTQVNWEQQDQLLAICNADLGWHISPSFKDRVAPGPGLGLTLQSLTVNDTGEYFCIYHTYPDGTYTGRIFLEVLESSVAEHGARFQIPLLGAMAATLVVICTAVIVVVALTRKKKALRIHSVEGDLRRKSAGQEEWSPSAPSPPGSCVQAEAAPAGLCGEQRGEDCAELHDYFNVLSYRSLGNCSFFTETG
Description: cell ELISA on fixed CHO-K1-T1001 cells; reference Ref1. On the technique in general: ELISA stands for enzyme-linked immunosorbent assay.

A further test deals with 人TIGIT-hFc (human) (UniProt Q495A1). As to the kind of experiment: blocking ELISA: Bio-CD155 on coated TIGIT-hFc; reference Ref1.

B1: IF091 (鼠源单克隆抗体mab22) (antibody, V domains shown)
VH: EVKLVESGGGLVQPGGSLKLSCVASGFTFSSYTMSWVRQTPEKRLELVAEISSSGGSTYYPDTVKGRFTISRDNAKNTLFLQMNSLKSEDTAMYYCARPGLGAWFAYWGQGTLVTVSA
VL: DVLMTQTPLSLPVSLGDQASISCRSSQSIVHNSGNTYLEWYLQKPGQSPKLLIYKVSNRFSGVPDRFSGSGSGTDFTLKISRVEAEDLGIYYCFQFSHVPRTFGGGTKLEIK
Regarding B1, the fold better than Ref1 (结合活性) in test [1] was determined as 1.73 fold. Moreover, the fold better than Ref1 (阻断活性) with 人TIGIT-hFc (human) amounted to 1.83 fold.

The record behind these values is patent CN116355095A.
